Where two headings read alike, the source gives them in different places.
Legend:
[1] = target: Delta variant S protein on plant-produced virus-like particles (SARS-CoV-2 (Delta variant)) (UniProt P0DTC2); assay: ELISA
[2] = target: Delta variant S protein on plant-produced virus-like particles (SARS-CoV-2 (Delta variant)) (UniProt P0DTC2); assay: ELISA; remark: listed apart in the source

Substance	EC50 [1] [nM]	EC50 [2] [nM]
COVA2-15 IgG (antibody)	9.03	9
COVA2-15 secretory IgA2 (from UniProt P01591 23-159; P01833 19-764) (antibody)	0.542	
COVA2-15 secretory IgA1 (from UniProt P01591 23-159; P01833 19-603) (antibody)		0.09
COVA2-15 monomeric IgA2 (antibody)	2.06	
COVA2-15 secretory IgA1 (from UniProt P01591 23-159; P01833 19-764) (antibody)	0.086	
COVA2-15 monomeric IgA1 (antibody)	1.95	

Reference: publication PMC10928148
